From article PMC7596504, “Molecular mechanism of the MORC4 ATPase activation” (Nature Communications, 2020)

Legend:
MORC4 [1] = assay: ATPase activity assay (EnzChek Phosphate Assay Kit); assay type: biochemical, human; design: Rate of ATP hydrolysis: unit not given here
Protocol: (§1) To determine whether MORC4 is catalytically active, we produced the ATPase domain of human MORC4 and examined its ability to hydrolyze ATP in enzymatic assays (Fig. 1a–c). Following incubation of the ATPase domain with ATP, 2-amino-6-mercapto-7-methylpurine ribonucleoside and nucleoside phosphorylase, the release of inorganic phosphate generated by the hydrolysis of ATP to ADP was monitored by measuring an increase in absorbance at 360 nm.
(§2) The ATPase assays were performed using the EnzChek Phosphate Assay Kit (Invitrogen, item # E6646). The reactions were carried out on 1.0 µM of MORC4 His-ATPase or ATPaseCW (WT and mutants), in the presence and absence of 1 µM 601 DNA or 50 µM of unmodified H3 or H3K4me3 peptide (aa 1–12 of H3) in a buffer containing 50 mM Tris-HCl (pH 7.5), 150 mM NaCl, 1 mM MgCl2, 0.1 mM sodium azide, 200 µM MESG, and 1 U of PNP. In assay with the nucleosome, 0.5 µM of MORC4 ATPaseCW and 0.5 µM NCP167 (Activemotif) were used. The reaction was started by adding 2 mM ATP to the mixture at room temperature, and the release of inorganic phosphate was monitored by measuring the absorbance at 360 nm on a Nanodrop 2000c spectrophotometer (Thermo Scientific). In the presence of inorganic phosphate, produced by the hydrolysis of ATP to ADP, MESG is enzymatically converted to ribose 1-phosphate and […] by PNP, resulting in a shift in the wavelength absorbance from 330 nm for MESG to 360 nm for the product. The rate of ATP self-hydrolysis was measured in parallel. Error was calculated as the S.D. of at least three separate experiments (two in Fig. 4j).

MORC4 [2] = target: T1, MORC4 (Homo sapiens, UniProt Q8TE76); assay: as above; assay type: biochemical; design: Rate of ATP hydrolysis: unit not given here; details: Supp. Fig. 1
T1 construct: the ATPaseCW cassette (aa 29–486) of human MORC4 (Q8TE76); GST (cleaved yes); made in house; host or cells: E. coli Rosetta2 (DE3) pLysS or BL21 (DE3) RIL
T1 sequence (Q8TE76 1-937): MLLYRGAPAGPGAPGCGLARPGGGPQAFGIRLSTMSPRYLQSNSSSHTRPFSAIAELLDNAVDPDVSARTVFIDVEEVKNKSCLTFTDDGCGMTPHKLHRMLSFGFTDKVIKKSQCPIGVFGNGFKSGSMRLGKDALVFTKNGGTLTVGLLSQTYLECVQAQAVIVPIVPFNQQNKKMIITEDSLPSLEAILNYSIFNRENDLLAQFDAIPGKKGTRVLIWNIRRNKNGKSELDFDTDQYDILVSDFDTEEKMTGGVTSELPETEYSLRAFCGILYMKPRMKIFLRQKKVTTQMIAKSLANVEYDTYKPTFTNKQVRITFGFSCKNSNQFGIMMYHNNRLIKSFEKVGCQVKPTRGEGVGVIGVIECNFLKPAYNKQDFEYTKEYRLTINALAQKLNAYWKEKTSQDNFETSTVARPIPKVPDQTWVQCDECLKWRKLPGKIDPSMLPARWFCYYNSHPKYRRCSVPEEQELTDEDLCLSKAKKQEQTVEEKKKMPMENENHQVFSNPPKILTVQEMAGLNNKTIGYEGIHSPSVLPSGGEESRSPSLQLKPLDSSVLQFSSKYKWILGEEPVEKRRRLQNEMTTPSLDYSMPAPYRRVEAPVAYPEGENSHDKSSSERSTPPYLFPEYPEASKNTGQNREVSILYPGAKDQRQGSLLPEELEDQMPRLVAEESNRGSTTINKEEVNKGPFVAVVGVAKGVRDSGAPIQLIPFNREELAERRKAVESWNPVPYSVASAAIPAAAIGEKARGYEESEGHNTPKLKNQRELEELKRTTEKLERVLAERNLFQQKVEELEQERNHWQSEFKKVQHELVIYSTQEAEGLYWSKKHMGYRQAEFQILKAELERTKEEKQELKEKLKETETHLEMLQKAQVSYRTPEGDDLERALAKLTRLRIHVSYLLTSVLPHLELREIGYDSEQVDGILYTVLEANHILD
Protocol: as §1, §2

- Rate of ATP hydrolysis (MORC4 [1]; + H3K4me3 + 601 DNA, Fig. 1c, mean of 3): 0.3353
- Rate of ATP hydrolysis (MORC4 [1]; + H3K4me3 + 601 DNA, Fig. 1c, replicate 1): 0.3507
- Rate of ATP hydrolysis (MORC4 [1]; + H3K4me3 + 601 DNA, Fig. 1c, replicate 2): 0.3597
- Rate of ATP hydrolysis (MORC4 [1]; + H3K4me3 + 601 DNA, Fig. 1c, replicate 3): 0.2954
- Rate of ATP hydrolysis (MORC4 [1]; + H3un + 601 DNA, Fig. 1c, mean of 3): 0.3154
- Rate of ATP hydrolysis (MORC4 [1]; + H3un + 601 DNA, Fig. 1c, replicate 1): 0.2842
- Rate of ATP hydrolysis (MORC4 [1]; + H3un + 601 DNA, Fig. 1c, replicate 2): 0.3368
- Rate of ATP hydrolysis (MORC4 [1]; + H3un + 601 DNA, Fig. 1c, replicate 3): 0.3251
- Rate of ATP hydrolysis (MORC4 [1]; no DNA, no peptide, 1.0 µM protein, 2 mM ATP, pH 7.5, room temperature, absorbance 360 nm, Fig. 1b,c, mean): 0.09309
- Rate of ATP hydrolysis (MORC4 [1]; no DNA, no peptide, Fig. 1b,c, replicate 1): 0.08409
- Rate of ATP hydrolysis (MORC4 [1]; no DNA, no peptide, Fig. 1b,c, replicate 2): 0.08589
- Rate of ATP hydrolysis (MORC4 [1]; no DNA, no peptide, Fig. 1b,c, replicate 3): 0.1093
- Rate of ATP hydrolysis (MORC4 [2]; 0.5 µM MORC4 ATPaseCW + 0.5 µM NCP167, mean of 3): 0.468
- Rate of ATP hydrolysis (MORC4 [2]; 0.5 µM MORC4 ATPaseCW + 0.5 µM NCP167, replicate 1): 0.5696
- Rate of ATP hydrolysis (MORC4 [2]; 0.5 µM MORC4 ATPaseCW + 0.5 µM NCP167, replicate 2): 0.408
- Rate of ATP hydrolysis (MORC4 [2]; 0.5 µM MORC4 ATPaseCW + 0.5 µM NCP167, replicate 3): 0.4265
- Rate of ATP hydrolysis (MORC4 [2]; 0.5 µM MORC4 ATPaseCW, without NCP167, mean of 3): 0.2339
- Rate of ATP hydrolysis (MORC4 [2]; 0.5 µM MORC4 ATPaseCW, without NCP167, replicate 1): 0.309
- Rate of ATP hydrolysis (MORC4 [2]; 0.5 µM MORC4 ATPaseCW, without NCP167, replicate 2): 0.1285
- Rate of ATP hydrolysis (MORC4 [2]; 0.5 µM MORC4 ATPaseCW, without NCP167, replicate 3): 0.2641
B1: ATPaseCW: ATPaseCW cassette (aa 29–486) of human MORC4 (Q8TE76) (protein)
chain: GIRLSTMSPRYLQSNSSSHTRPFSAIAELLDNAVDPDVSARTVFIDVEEVKNKSCLTFTDDGCGMTPHKLHRMLSFGFTDKVIKKSQCPIGVFGNGFKSGSMRLGKDALVFTKNGGTLTVGLLSQTYLECVQAQAVIVPIVPFNQQNKKMIITEDSLPSLEAILNYSIFNRENDLLAQFDAIPGKKGTRVLIWNIRRNKNGKSELDFDTDQYDILVSDFDTEEKMTGGVTSELPETEYSLRAFCGILYMKPRMKIFLRQKKVTTQMIAKSLANVEYDTYKPTFTNKQVRITFGFSCKNSNQFGIMMYHNNRLIKSFEKVGCQVKPTRGEGVGVIGVIECNFLKPAYNKQDFEYTKEYRLTINALAQKLNAYWKEKTSQDNFETSTVARPIPKVPDQTWVQCDECLKWRKLPGKIDPSMLPARWFCYYNSHPKYRRCSVPEEQELTDEDLCLSKAKKQE
modifications: left off: GST, end not stated, cleaved
